The text below walks through data of paper doi:10.1101/2025.06.20.660733.

In experiment [1] the target is neuraminidase of A/Moscow/10/1999 (H3N2), recombinant head domain (influenza A virus A/Moscow/10/1999 (H3N2)).
Experiment [2] has as its target neuraminidase of A/cattle/Texas/56283/2024 (H5N1), recombinant head domain (influenza A virus A/cattle/Texas/56283/2024 (H5N1)).

B1: HB420 (human IgG1) (antibody, V domains shown)
VH: EVQLVESGAEVKKPGSSVKVSCMASGGSFGSYGFSWVRQAPGQGLEWMGGIIPLFDTPNYAQKFQGRVTITADASTSTVYMELSSLRSEDTAVYYCARDSLPYGDQNYYYGMHVWGQGTTVTVSS
VL: QSALTQPASLSGSPGQSITISCSGSSSDIGDYNYVSWYQQHPGKAPKLIIYDVTNRPSGVSDRLSGSKSGTTASLTISGLQAEDEADYYCSSYGGNYNLVFGGGTKLTVL
Take B1: the NA inhibition of recombinant NA by enzyme-linked lectin assay (ELLA), IC50 in experiment [1] was determined as 0.19 µg/mL; in experiment [2], 50 µg/mL.
